From paper PMC4840320 (Scientific Reports, 2016)
Where a chain is given by its changes, count along the chain named. Names may count otherwise.

B1: GST-fused full length ARL-13 (FL) (natural protein, C. elegans, UniProt H2L0N8-2 1-367, looked up)
chain: MTEKSWFETIFCCCCHRTPIIRREIKLGCFGIGSAGKTTFLKVLKGEDPRDLLRTNGFSTVKMEYDETFHLTIYDVGGDKGIRGIWSNYYAEVHGIIYVIDYSTDETFTESIEALHSLTSNPHVQKKPIFLLLNNQNNREFDDVEISNETKIQAGQHKIVLFSHFNKYNGYLDNIKSATLTVMARAKKDRNEYQEQFVRFIDSISEHYVELSEGVKTAELALRIRQEEAKEQRRLMQMKVEHDALKADVAGLELRNQPPVQPPIPPDPPSDPKSASVHIEESPPMSLASSTIPSDIIQSTPETGTPRDPVKISQTSTKPVSPESNSVKEEPTIILKDNYFLPPKAPGRQYSRIQRIQNVLNNRVVPK
B2: His-tagged ARL-3 (natural protein, C. elegans, UniProt O45379 1-184, looked up)
chain: MGLIDVLKSFKSPSGREIRILLLGLDNAGKTTILKQLSSEDVQHVTPTKGFNVKTVAAMGDIRLNVWDIGGQRSIRPYWSNYYENIDTLIFVIDSNDKKRFDEMNIELGELLDEEKLRKVPVLIFANKQDLVTAASSEEITRKLNLDLLRDRTWHIQACSALKNEGINDGITWVASNLKPASKK
notes: ARL-3, small GTPase of C. elegans, wild type; the methods speak of full-length and/or truncated cDNAs, and no truncation of ARL-3 is named; also called His-ARL-3; source: E. coli BL21, purified (His resin); not shown: His, N-terminal, kept
B3: ARL-3 dominant active (DA, Q72L) variant, recombinant (natural protein, C. elegans, UniProt O45379 1-184, looked up)
chain: B2 chain with Q72L
notes: ARL-3, C. elegans, dominant active variant Q72L; also called ARL-3 DA; source: E. coli BL21, purified (His resin or glutathione sepharose)
B4: ARL-3 dominant negative (DN, T31N) variant, recombinant (natural protein, C. elegans, UniProt O45379 1-184, looked up)
chain: B2 chain with T31N
notes: ARL-3, C. elegans, dominant negative variant T31N; also called ARL-3 DN; ARL-3DN (T31N); source: E. coli BL21, purified (His resin or glutathione sepharose)

How the values were obtained:
[1] = target: B2; test: cell-based or functional assay
[2] = target: T1, UNC-119, recombinant, as used in the GST pull-downs with ARL-3 and its variants (C. elegans, UniProt Q10658 1-219); test: pull-down; GST pull-down: His-tagged protein incubated with GST-tagged protein immobilised on glutathione sepharose; 25 mM Tris-HCl pH 7.4, 150 mM NaCl, 0.5% Triton X-100, 1 mM DTT, 10% glycerol, 4 hours at 4 °C; six washes; anti-His immunoblot; conditions: both partners purified
T1 construct: if it carried the His tag it is the same construct as m6 and ARL-3 was GST-fused; source: E. coli BL21, purified (His resin or glutathione sepharose)
T1 sequence (Q10658 whole entry, change not shown, the tested form may be a part): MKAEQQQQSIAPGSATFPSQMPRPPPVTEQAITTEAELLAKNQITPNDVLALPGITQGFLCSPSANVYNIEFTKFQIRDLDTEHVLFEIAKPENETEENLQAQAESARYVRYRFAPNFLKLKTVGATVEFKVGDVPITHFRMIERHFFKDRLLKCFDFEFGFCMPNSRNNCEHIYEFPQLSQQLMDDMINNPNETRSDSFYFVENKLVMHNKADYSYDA

Binder	mantGDP release from GDP-preloaded ARL-3 (in vitro GEF assay), ARL-13 from one-tenth molar (~2 fold) to a 1:1 molar ratio [1]	binding result [2]
B1	~7 fold	–
B2	–	binds
B3	–	binds
B4	–	binds
